Measurements as given in patent US20250179176A1, “ANTI-TIGIT ANTIBODIES AND USES OF THE SAME” (ARCUS BIOSCIENCES, INC., priority 2022, published 2025).
Like-named read-outs stand apart in the source and are kept apart here.

Legend:
CD8+ T cells = assay: Ki67 on circulating CD8+ T cells (whole blood flow cytometry); type: in vivo, human
Protocol: Quantitation of Ki-67, a nuclear protein associated with cell cycle, is a common method to evaluate cell proliferation, especially in human samples ex vivo.
Immune cell profiling was conducted in whole blood by flow cytometry. For patients enrolled in the study described in Example 5 or Example 6, Ki67 changes on CD8^+ T cells were evaluated in whole blood by similar methods. Extracellular staining cocktails which included (minimally) CD3, CD8, and CD56 antibodies were added to 500 ul of whole blood and incubated on ice for 30 minutes. These markers were used to identify CD8^+ T cells (CD3^+CD56^− CD8^+) in both studies. For patients in the study of Example 6, extracellular cocktails also included CD45RA, CD39, and CD103 antibodies to identify an antigen-experienced memory CD8^+ T cell population (CD3^+CD56^−CD8^+CD45RA^−CD39^+CD103^+). Following extracellular staining, all blood samples were fixed and lysed using 1×BD FACSLyse buffer for 20 minutes on ice and then stored at −80° C. for up to 6 weeks. Upon thawing, samples were centrifuged at 400×g for 5 min to remove the lysing solution, washed in PBS, and then fixed and permeabilized in 100 ul of 1×FoxP3 Fixation Buffer for 1 hour at room temperature. […] The maximum fold change observed with the first cycle of treatment (between C1D1 and C2D29) was also determined for Ki67 expression on CD8^+ T cells.

[1] = Phase 2 study in front-line NSCLC (ARC-7), safety
[2] = Population PK model and simulations; design: species or system human
Protocol: All available PK data from this study were combined in a population PK model. […] The population PK model confirmed that the PK of domvanalimab was dose-linear over the dose range and consistent across the dosing regimens.
Simulations were run with the model of n=500 patients each at 10 mg/kg Q2W, 15 mg/kg Q3W, and 20 mg/kg Q4W dosing regimens for 24 weeks.

[3] = Pharmacokinetics of domvanalimab in humans; type: in vivo, human; conditions: Q2W
Text: The present example illustrates the pharmacokinetics of domvanalimab in human subjects. […] Subjects had ≥1 measurable lesion per RECIST v1.1 and ECOG performance status score 0-1.
Examination of the mean PK plots indicated similar PK across the dosing regimens.

[4] = system: CD4+ T cells, CD8+ T cells, and Tregs; assay: Peripheral T cell absolute counts and frequencies (Trucount, flow cytometry); type: in vivo, human; conditions: humans
Protocol: White blood cell counts for 11 patients have been followed for up to 85 days of treatment. See Table 17 for additional patient details. Cell counts were assessed in pre- and post-dose whole blood patient samples using commercially available Trucount tubes (BD Biosciences). CD45, CD3, CD4, CD8, CD25, and CD127 antibodies were used to detect peripheral blood T cells and Tregs using flow cytometry. The antibody cocktail and […] of whole blood was added to Trucount tubes, vortexed, and incubated for 15 minutes at room temperature. The stained whole blood was lysed using 900µl of 1×BD FACs Lyse solution followed by vortexing, and incubation for 15 minutes at room temperature. Absolute counts were calculated as detailed in the Trucount technical data sheet. Briefly, the absolute count of a cell population (A) was obtained by dividing the number of positive cells events (X) by the number of bead events (Y), and then multiplying by the BD Trucount bead concentration (N/V, where N is the number of beads per test and V is the test volume). A=X/Y×N/V. Absolute cell count was then reported per μl of whole blood (WB).
Absolute cell counts were not measured in all patients due to limited sample collection. […] Frequencies of different populations were determined relative to a parent population and each timepoint was normalized to baseline (C1D1 predose) to compute fold change.

TIGIT = biological target: T1, TIGIT (Homo sapiens, UniProt Q495A1); assay: TIGIT receptor occupancy (RO) assay in whole blood by flow cytometry; type: in vivo
T1 construct: select peripheral lymphocyte populations in whole blood collected from patients enrolled in a clinical study; endogenous in cells; host or cells: peripheral lymphocytes in whole blood of dosed patients
T1 sequence (Q495A1 22-244): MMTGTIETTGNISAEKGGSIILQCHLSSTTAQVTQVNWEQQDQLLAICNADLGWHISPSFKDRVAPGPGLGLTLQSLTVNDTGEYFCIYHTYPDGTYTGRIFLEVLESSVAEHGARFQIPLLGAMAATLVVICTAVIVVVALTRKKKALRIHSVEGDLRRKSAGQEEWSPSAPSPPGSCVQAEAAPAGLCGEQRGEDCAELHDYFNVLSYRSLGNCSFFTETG
Protocol: The RO assay is depicted in FIG. 3A and FIG. 3B.
The RO of domvanalimab on select peripheral lymphocyte populations in whole blood collected from patients enrolled in a clinical study was assessed by flow cytometry using pre- and post-dose whole blood samples. […] RO was determined on various immune cell types using antibodies specific for surface markers CD3, CD4, CD8, CD56, FoxP3, and Ki67. RO was calculated as follows: […]

[5] = all domvanalimab containing arms, 74 participants, initial cutoff
[6] = monotherapy cohort (N=10), initial cutoff
[7] = monotherapy cohort (N=10), Grade 1
[8] = first cycle, over 20-fold dose range 0.5-10 mg/kg

zimberelimab: antagonistic PD-1 antibody, immune checkpoint inhibitor
proliferating CD8+ T cells (CD8+ T cells; patients of the Example 6 study, PD-L1hi NSCLC): Increases
Any TEAEs Leading to Death ([1]; Table 4, initial cutoff): 3 (8) n (%)
SAE COVID-19, events ([1]; Table 7, initial cutoff): 0 n
SAE COVID-19, subjects ([1]; Table 7, initial cutoff): 0 n (%)
Any TEAEs Leading to Death ([1]; Table 10, later cutoff): 3 (6.0) n (%)
Any TEAEs Leading to Death, related to study treatment ([1]; Table 10, later cutoff): 1 (2.0) n (%)
Grade 5 TEAEs related to study treatment (per physician assessment) ([1]; safety population (149 patients)): interstitial lung disease

B1: domvanalimab: anti-TIGIT antibody with engineered IgG1 Fc, reduced FcγR binding; heavy chain SEQ ID NO: 12, light chain SEQ ID NO: 13 (antibody)
heavy: EVQLVESGGGLVQPGGSLRLSCAASGFTFSNFGMHWVRQAPGKGLEWVAFISSGSSSIYYADTVKGRFTISRDNAKNSLYLQMNSLRAEDTAVYYCARMRLDYYAMDYWGQGTMVTVSSASTKGPSVFPLAPSSKSTSGGTAALGCLVKDYFPEPVTVSWNSGALTSGVHTFPAVLQSSGLYSLSSVVTVPSSSLGTQTYICNVNHKPSNTKVDKKVEPKSCDKTHTCPPCPAPEAAGGPSVFLFPPKPKDTLMISRTPEVTCWVDVSHEDPEVKFNWYVDGVEVHNAKTKPREEQYNSTYRWSVLTVLHQDWLNGKEYKCKVSNKALPAPIEKTISKAKGQPREPQVYTLPPSRDELTKNQVSLTCLVKGFYPSDIAVEWESNGQPENNYKTTPPVLDSDGSFFLYSKLTVDKSRWQQGNVFSCSVMHEALHNHYTQKSLSLSPGK
light: DIQMTQSPSSLSASVGDRVTITCRASKSISKYLAWYQQKPGKAPKLLIYSGSTLQSGVPSRFSGSGSGTDFTLTISSLQPEDFATYYCQQHNEYPWTFGGGTKVEIKRTVAAPSVFIFPPSDEQLKSGTASWCLLNNFYPREAKVQWKVDNALQSGNSQESVTEQDSKDSTYSLSSTLTLSKADYEKHKVYACEVTHQGLSSPVTKSFNRGEC
terminal half-life ([2]; estimated based on the population PK model): 19.9 days
volume of distribution ([2]; population PK model): approximated plasma volume
dose linearity of PK ([2]; population PK model, 0.5-20 mg/kg, Q2W, Q3W, Q4W): dose-linear
proliferative marker (Ki67) on circulating CD8+ T cells (CD8+ T cells; patients of the Example 5 study): increases
fatal case of myocarditis related to study treatment ([1]; 74 participants, case received domvanalimab and zimberelimab): 1.3%
fatal case of pneumonitis related to study treatment ([1]; 74 participants, case received domvanalimab, zimberelimab and etrumadenant): 1.3%
TEAE leading to domvanalimab dose modification/interruption [1, 5]: 27.0%
discontinued domvanalimab due to a TEAE [1, 5]: 4.0%
participants with TEAE Grade ≥3 [1, 5]: 45.9%
participants with TEAEs Grade ≥3 related to domvanalimab [1, 5]: 10.8%
participants with at least 1 TEAE [1, 5]: 93.2%
participants with serious adverse events [1, 5]: 25.6%
participants with treatment related AE related to domvanalimab [1, 5]: 56.7%
participants with treatment related SAEs [1, 5]: 8.3%
SAE decreased appetite (monotherapy cohort (N=10)): 10%
SAE dyspnea (monotherapy cohort (N=10)): 10%
SAE hyponatremia (monotherapy cohort (N=10)): 10%
SAE peritonitis bacterial (monotherapy cohort (N=10)): 10%
SAE pleural effusion (monotherapy cohort (N=10)): 10%
discontinued domvanalimab due to a TEAE (monotherapy cohort (N=10)): 30%
dose delays/interruptions due to a TEAE (monotherapy cohort (N=10)): 10%
SAEs considered related to domvanalimab [6]: none
TEAE dyspnea regardless of causality [6]: 30%
all other TEAEs, each [6]: ≤ 10%
participants with SAEs [6]: 40%
participants with at least 1 TEAE [6]: 100%
participants with domvanalimab-related TEAEs [6]: 30%
total number of SAEs [6]: 5
domvanalimab-related TEAE fatigue [7]: 10%
domvanalimab-related TEAE hyperglycemia [7]: 10%
domvanalimab-related TEAE nausea [7]: 10%
domvanalimab-related TEAE pruritus [7]: 10%
deaths due to treatment-related AEs (whole study, initial cutoff): No deaths
dose proportionality of PK ([3]; 0.5-10 mg/kg): roughly dose proportional
increase of concentration at end of infusion (Ceoinf) [3, 8]: 15 fold
increase of concentration at the end of the dosing interval (Ctrough) [3, 8]: 27 fold
increase of mean area under the concentration time curve over the first dosage interval [3, 8]: 17 fold
depletion of peripheral T cells [4]: does not deplete
RO across all dose groups (TIGIT; 24 participants, 0.5-20 mg/kg Q2W/Q3W/Q4W, all post-dose time points): maximal RO
TIGIT receptor occupancy (RO) (TIGIT; Q2W, monotherapy and combination cohorts, all cell types, 1 hour after end of infusion of first dose): ≥ 98%
RO at later time points (TIGIT; Q2W, pre-dose Day 15, 29, 57, 85): complete RO was maintained
